In paper doi:10.1101/2022.08.30.505852 one finds Kd data, which are given here for one substance.

pKd: −log10 of the molar value.

The assay addresses βCAT_(666-729), β-catenin residues 666-729 (human) (UniProt P35222). The experiment in a line: ITC.

Sequence of βCAT_(666-729), β-catenin residues 666-729 (human) (P35222 666-729): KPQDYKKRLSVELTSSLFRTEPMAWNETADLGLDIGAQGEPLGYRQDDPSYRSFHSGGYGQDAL

Consider “TAZ1 domain of CBP (residues 346-440) (from UniProt Q92793 346-440) (domain or fragment)”, for which the pKd was 4.17.
